Laboratory results taken from paper PMC3545106 (Structure (London, England : 1993), 2012).
One block for each binder: values may come before it. Square brackets hold non-standard residues; d marks the D form. Ends that are not written are not given here. pT = C[C@@H](OP(=O)(O)O)[C@H](N)C(=O)O

What was measured:
[1] = target: T1, AF4 peptide phosphorylated at T766; assay: fluorescence polarisation
T1 chain: LMVKI[pT]LDLLSRIP

[2] = target: AF4 peptide of the fluorescence anisotropy experiments; assay: fluorescence polarisation
[3] = target: BCoR peptide of the fluorescence anisotropy experiments; assay: fluorescence polarisation
[4] = target: T2, AF9 ANC1 Homology Domain (AHD), residues 490-568 (UniProt P42568 490-568); assay: NMR titration
T2 sequence (looked up): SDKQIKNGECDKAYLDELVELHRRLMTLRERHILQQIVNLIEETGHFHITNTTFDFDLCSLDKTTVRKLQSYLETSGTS

fold reduction of affinity against the unphosphorylated AF4 peptide [1]: ~30 fold
Kd [2]: 0.17 nM
Kd [3]: 32 nM
B1: MBP-AF9 (mouse AF9 residues 475-568 fused to the Maltose Binding Protein) (domain or fragment, UniProt A2AM29 475-568, looked up)
chain: NNNQILEVKSPIKQSKSDKQIKNGECDKAYLDELVELHRRLMTLRERHILQQIVNLIEETGHFHITNTTFDFDLCSLDKTTVRKLQSYLETSGT

binding result [4]: binds
B2: AF4 peptide, residues 761-774 (AF9 interaction motif of AF4) (peptide, UniProt P51825 761-774, looked up)
peptide: LMVKITLDLLSRIP
